Reference: US20130022611A1, “METHODS AND COMPOSITIONS FOR MODULATING HEPSIN ACTIVATION OF UROKINASE-TYPE PLASMINOGEN ACTIVATOR” (Genentech, Inc., priority 2006, published 2013)

Assays:
[1] = target: T1, uPA (Homo sapiens, UniProt P00749); test: Chromogenic activity towards S2444 of samples withdrawn from LnCaP cell layers; assay type: biochemical; settings: data not shown
T1 construct: two-chain form consisting of the 20 kDa A-chain and the 30 kDa B-chain (protease domain); purchased American Diagnostica (Greenwich, Conn.)
Experimental: (§1) Confluent LnCaP-34 and LnCaP-17 cells were washed with HBSA-Glucose buffer (20 mM Hepes pH 7.5, 150 mM NaCl, 5 mM CaCl2, 0.05 mg/ml BSA, 5 mM glucose) and 0.8 ml of 100 nM pro-uPA in pre-warmed HBSA-Glucose buffer was added to the cell layers. The inhibitors KD1 or HI-10331 were added to give final concentrations of 1 μM and 10 μM, respectively. The culture plates were kept at 37° C. and 50 μl samples were withdrawn at different time points, supplemented with 0.2 ml of […] S2444 in Hepes buffer and the increase in absorbance at 405 nm measured on a kinetic microplate reader. Cell numbers were determined at the end of the experiments. The concentration of formed uPA in each sample was calculated from a standard curve of enzymatically converted pro-uPA and normalized to 10^6 cells. After subtracting the background levels of uPA formed in the absence of cell layer, the linear rates of uPA formation/10^6 cells were determined.

[2] = system: LnCaP-17 cells; test: Pro-uPA activation by LnCaP-17 cells (two-stage enzymatic assay); assay type: cell-based, human
Experimental: as §1

[3] = system: LnCaP-34 cells (hepsin-overexpressing); test: Pro-uPA conversion by LnCaP-34 cells, immunoblotting; assay type: cell-based, human; settings: LnCaP-34, 30 nM pro-uPA, 1 h, 3 h, 5 h, 37° C.
Experimental: For immunoblotting experiments, confluent LnCaP-34 cell layers were washed as above and incubated with 30 nM pro-uPA at 37° C. After 1 hr, 3 hr and 5 hr, aliquots were taken and immediately added to SDS sample buffer. The proteins were separated by SDS-PAGE and transferred onto nitrocellulose filters using the Bio-Rad Semi Dry Transfer system. Pro-uPA and uPA were visualized by using a rabbit polyclonal anti-uPA antibody (Cell Sciences; Canton, Mass.) followed by HRP-conjugated anti-rabbit antibody (Jackson ImmunoResearch Laboratory; West Grove, Pa.) and ECL (GE Healthcare; Piscataway, N.J.) enhancement.

[4] = target: T1, uPA; settings: reference 21; cited from earlier work
[5] = system: LnCaP-34 cells (hepsin-overexpressing); test: Pro-uPA activation by LnCaP-34 cells (two-stage enzymatic assay); assay type: cell-based, human
Experimental: as §1

[6] = target: T2, pro-uPA (Homo sapiens, UniProt P00749); test: First-order kinetics of pro-uPA activation by serine proteases; assay type: biochemical; settings: for Added pro-uPA converted during the experiment / First-order rate constant k ± SD: 30 nM pro-uPA, 3 nM enzyme; for First-order rate constant k ± SD: room temperature, 5 experiments; for Efficiency of pro-uPA activation compared to matriptase: kcat/Km ratio
T2 construct: time-dependent cleavage of the single-chain form into the two-chain form; purchased Cortex Biochem (San Leandro, Calif.)
Experimental: The Km and kcat values for pro-uPA activation could not be accurately determined because the pro-uPA stock solution from the supplier (0.8 mg/ml) was not sufficiently high. Therefore, we chose to determine the first-order rate constant k as a measure of pro-uPA conversion efficiency. It was ensured that the pro-uPA concentration used (30 nM) was in the range of first-order kinetics for the enzymes tested, i.e. hepsin, plasmin and matriptase. The rate of uPA formation by these enzymes was linear up to 200 nM of pro-uPA. Pro-uPA (30 nM) was added to the enzymes (3 nM) in Hepes buffer to start the reaction at room temperature. At various time points, 50-μl aliquots were removed and added to 150 μl of 667 nM HAI-2 (final concentration in 250 μl was 400 nM) in Hepes buffer to stop further pro-uPA cleavage. […] Our results on HAI-2 inhibition of plasmin and HGFA (data not shown) were consistent with the published data (26,27). After addition of 50 μl of 2.5 mM S2444, the increase in absorbance at 405 nm was measured on a kinetic microplate reader. The concentration of uPA in each aliquot was calculated from a standard curve of enzymatically converted pro-uPA. The data were expressed as the decrease in the concentration of pro-uPA (log [pro-uPA]) as function of time. The first-order rate constant k was calculated from the slope using the equation
log [S]=−(k/2.3)t+log [S]0
where [S] is the concentration of pro-uPA and [S]0 is the initial pro-uPA concentration. The catalytic efficiency, kcat/Km, was then calculated using the known enzyme concentration [E] and the relationship k=(kcat/Km)[E]. The values are the average of 5 experiments±SD.

[7] = target: T3, pro-tPA (Homo sapiens, UniProt P00750); test: Pro-tPA cleavage analysed by SDS-PAGE; assay type: biochemical; settings: 1.5 μM pro-tPA, 15 nM enzyme, 10 and 60 min
T3 construct: purchased Biodesign International (Saco, Me.)
Experimental: Pro-uPA at a concentration of 1.5 μM was incubated with 15 nM hepsin or 15 nM plasmin in Hepes buffer at room temperature. […] The samples were analyzed by SDS-PAGE using a 4-20% gradient gel (Invitrogen; Carlsbad, Calif.). Protein was visualized after staining with SimplyBlue Safe Stain (Invitrogen). Experiments with pro-tPA (1.5 μM) were carried out identically, except that the buffer used was 50 mM sodium phosphate pH 7.5, 200 mM arginine, 0.01% Tween-20.

[8] = target: T1, uPA; test: Enzymatic assay of uPA with chromogenic substrate S2444; assay type: biochemical; settings: 10 nM uPA, S2444 at Km; read-out: Ki* (apparent equilibrium dissociation constant) ± SD
Experimental: The reversible active site inhibitor HI-10331 (Genentech, Inc.) (having the molecule structure depicted in FIG. 10, and disclosed in U.S. Pat. No. 6,472,393) or HAI-2 were incubated with 0.5 nM hepsin, 0.5 nM matriptase and 10 nM uPA for 30 min in Hepes buffer (20 mM Hepes, pH 7.5, 150 mM NaCl, 5 mM CaCl2, 0.01% Triton X-100) at room temperature. The chromogenic substrates S2366 (for hepsin), S2765 (for matriptase) and S2444 (for uPA) were added at a concentration corresponding to their respective Km values, which were determined in separate experiments. After substrate addition, the linear rates of the increase in absorbance at 405 nm was measured on a kinetic microplate reader (Molecular Devices, Sunnyvale, Calif.).
The Ki values were calculated according to the relationship Ki=IC50/(1+[S]/Km) (23) using the experimentally determined IC50 and Km values for each enzyme-substrate pair. For HAI-2, the apparent Ki values (Ki^*) were determined by fitting the data to the equation for tight binding inhibition (24,25).

T3 sequence (P00750 36-562): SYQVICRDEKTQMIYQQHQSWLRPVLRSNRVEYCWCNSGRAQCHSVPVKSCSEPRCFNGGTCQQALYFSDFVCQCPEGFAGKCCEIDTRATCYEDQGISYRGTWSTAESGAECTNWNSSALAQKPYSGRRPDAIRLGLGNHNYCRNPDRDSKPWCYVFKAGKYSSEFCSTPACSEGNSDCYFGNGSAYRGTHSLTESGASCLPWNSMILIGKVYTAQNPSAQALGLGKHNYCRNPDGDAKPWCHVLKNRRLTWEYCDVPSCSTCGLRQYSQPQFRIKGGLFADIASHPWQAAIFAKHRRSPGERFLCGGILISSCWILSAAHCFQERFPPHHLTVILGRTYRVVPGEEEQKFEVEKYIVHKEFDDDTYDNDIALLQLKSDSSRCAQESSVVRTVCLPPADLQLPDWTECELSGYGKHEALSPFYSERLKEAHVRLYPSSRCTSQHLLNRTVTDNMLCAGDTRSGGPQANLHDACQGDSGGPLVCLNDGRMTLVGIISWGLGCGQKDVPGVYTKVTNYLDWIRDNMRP

Molecule: KD1: Kunitz domain-1 inhibitor derived from HAI-1B, produced in E. coli (TEDYCLASNKVGRCRGSFPRWYYDPTEQICKSFVYGGCLGNKNNYLREEECILACRGV)
- Inhibition of chromogenic activity of the withdrawn samples [1]: not inhibited
- Inhibition of pro-uPA cleavage ([2]; LnCaP-17, 1 μM KD1): almost completely inhibited
- Rate of pro-uPA activation per 10^6 cells ± SD ([2]; LnCaP-17, 1 μM KD1, 100 nM pro-uPA, 37° C.): 0.2 ± 0.2 nM uPA hr^−1
- Inhibition of pro-uPA cleavage (immunoblot) [3]: strongly inhibited
- Inhibition of uPA [4]: does not inhibit
- Inhibition of pro-uPA cleavage ([5]; LnCaP-34, 1 μM KD1): almost completely inhibited
- Rate of pro-uPA activation per 10^6 cells ± SD ([5]; LnCaP-34, 1 μM KD1, 100 nM pro-uPA, 37° C.): 0.2 ± 0.1 nM uPA hr^−1

Molecule: Hepsin: soluble His-tagged extracellular domain of human hepsin (Arg45-Leu417), baculovirus expressed
- Added pro-uPA converted during the experiment [6]: about 70%
- First-order rate constant k ± SD [6]: 87.1 ± 11.3 10^−3 min^−1
- Efficiency of pro-uPA activation compared to matriptase [6]: about 6 fold
- Cleavage of pro-tPA [7]: does not cleave

B1: Matriptase: matriptase protease domain expressed in E. coli (protein)
chain: VVGGTDADEGEWPWQVSLHALGQGHICGASLISPNWLVSAAHCYIDDRGFRYSDPTQWTAFLGLHDQSQRSAPGVQERRLKRIISHPFFNDFTFDYDIALLELEKPAEYSSMVRPICLPDASHVFPAGKAIWVTGWGHTQYGGTGALILQKGEIRVINQTTCENLLPQQITPRMMCVGFLSGGVDSCQGDSGGPLSSVEADGRIFQAGVVSWGDGCAQRNKPGVYTRLPLFRDWIKENTGV
- First-order rate constant k ± SD [6]: 14.2 ± 4.9 10^−3 min^−1

B2: HAI-2: recombinantly expressed soluble hepatocyte growth factor activator inhibitor-2, a bi-Kunitz inhibitor (protein)
chain: ADRERSIHDFCLVSKVVGRCRASMPRWWYNVTDGSCQLFVYGGCDGNSNNYLTKEECLKKCATVTENATGDLATSRNAADSSVPSAPRRQDSEDHSSDMFNYEEYCTANAVTGPCRASFPRWYFDVERNSCNNFIYGGCRGNKNSYRSEEACMLRCFRQQENPPLPLGSK
- Ki [8]: > 1000 nM

B3: Plasmin: Lys-plasmin from Heamatologic Technologies Inc., known pro-uPA activator (protein)
chain: KVYLSECKTGNGKNYRGTMSKTKNGITCQKWSSTSPHRPRFSPATHPSEGLEENYCRNPDNDPQGPWCYTTDPEKRYDYCDILECEEECMHCSGENYDGKISKTMSGLECQAWDSQSPHAHGYIPSKFPNKNLKKNYCRNPDRELRPWCFTTDPNKRWELCDIPRCTTPPPSSGPTYQCLKGTGENYRGNVAVTVSGHTCQHWSAQTPHTHNRTPENFPCKNLDENYCRNPDGKRAPWCHTTNSQVRWEYCKIPSCDSSPVSTEQLAPTAPPELTPVVQDCYHGDGQSYRGTSSTTTTGKKCQSWSSMTPHRHQKTPENYPNAGLTMNYCRNPDADKGPWCFTTDPSVRWEYCNLKKCSGTEASVVAPPPVVLLPDVETPSEEDCMFGNGKGYRGKRATTVTGTPCQDWAAQEPHRHSIFTPETNPRAGLEKNYCRNPDGDVGGPWCYTTNPRKLYDYCDVPQCAAPSFDCGKPQVEPKKCPGRVVGGCVAHPHSWPWQVSLRTRFGMHFCGGTLISPEWVLTAAHCLEKSPRPSSYKVILGAHQEVNLEPHVQEIEVSRLFLEPTRKDIALLKLSSPAVITDKVIPACLPSPNYVVADRTECFITGWGETQGTFGAGLLKEAQLPVIENKVCNRYEFLNGRVQSTELCAGHLAGGTDSCQGDSGGPLVCFEKDKYILQGVTSWGLGCARPNKPGVYVRVSRFVTWIEGVMRNN
- Added pro-uPA converted during the experiment [6]: about 70%
- First-order rate constant k ± SD [6]: 81.5 ± 14.2 10^−3 min^−1
- Efficiency of pro-uPA activation compared to matriptase [6]: about 6 fold
